Reference: US20220143148A1, “COMPOSITIONS AND METHODS FOR MODULATING CGRP SIGNALING TO REGULATE INTESTINAL INNATE LYMPHOID CELLS” (The Broad Institute, Inc., priority 2019, published 2022)

System: small intestinal immune cells
Test: Droplet-based scRNA-seq of small intestinal immune cells (LP and PP), OVA vs PBS, clustering and differential expression
Type: in vivo, mouse
Conditions: PP; cluster ID 8
From the text: To comprehensively characterize small intestinal immune cells, Applicants generated scRNA-Seq profiles for 58,067 immune cells collected from lamina propria (LP) and Peyer's patch (PP) regions at steady state and after induction of a type 2 inflammatory reaction to ovalbumin (OVA) (Brandt et al., 2003) (FIGS. 1A and 8A). To ensure sufficient representation of rare cells, Applicants combined a normalization strategy—removing by flow sorting either a portion of IgD+ naïve B cells, which are the most abundant cell type in PPs, or all CD19+ and CD3+ T cells (FIG. 8B, Methods)—with profiling of a sufficiently large number of cells number (P>0.99 to recover at least 15 cells from each cluster, Methods) by massively parallel scRNA-seq (Haber et al., 2017) (Methods). Applicants obtained 36,797 and 21,270 high quality cells passing initial filtering (Methods) from PP and LP regions, respectively.
Overall, Applicants annotated 27 cell subsets across the two compartments, spanning T cells, B cells, ILCs, dendritic cells (DCs), myeloid cells and stromal cells, in frequencies ranging from 0.07% to 14%. Briefly, Applicants first partitioned the cells from the PP regions by unsupervised clustering (Methods) into 46 clusters, retained the 97% of cells that were robustly assigned cell identities in each cluster (Methods), assigned the cells from the LP regions to the 46 clusters using a classifier (Methods), and visualized the data with scvis (Ding et al., 2018), a deep generative model-based method (FIGS. 1B and 8C, Methods). Next, Applicants identified genes that were differentially expressed between the cells in each cluster and the remaining cells (Table 1, Methods), as well as between pairs of clusters (Table 2), to elucidate identities of similar cell types/states. Applicants excluded from downstream analysis clusters mostly consisting of contaminants from epithelium, likely doublets, or cells with a small number of Unique Molecular Identifiers (UMIs) (FIGS. 1C and 8D), or lacking distinct markers (Methods). Altogether, Applicants retained 27 clusters spanning 85% of the cells and each associated with distinct marker genes (FIG. 8E, Methods).
To induce allergic reaction to OVA, 6 to 7 weeks old mice were sensitized twice, two weeks apart, with 50 μg of OVA plus 1 mg of aluminum potassium sulfate adjuvant via intraperitoneal injection. Two weeks later, mice were orally administered with 50 mg of OVA on every other day for a total of five times. 1 μg of α-CGRP peptide was administered simultaneously when indicated. Mice were deprived of food for 3-4 hours in cages with wood chip bedding for limiting antigen degradation in the stomach before each intragastric challenge.
Isolation of cells from Peyer's patches (PPs). Peyer's patches (PPs) were carefully dissected from the small intestine under a stereo microscope using a fine scissor, pierced once with a fine forcep. Tissues were digested in freshly made digestion buffer (RPMI-1640 containing 100 μg/ml Liberase™ and 50 μg/ml DNase I at 37° C. on a roto-mixer. After 15 min, tissues were very gently mixed using a 1 ml pipette. The supernatant was collected and added to ice-cold MACS buffer (pH 7.4; PBS plus 2% FCS and 2 mM EDTA). Pre-warmed (37° C.) fresh digestion buffer was added to the remaining tissues. After rotation at 37° C. for 15 min, the mixture was vigorously mixed using a 1 ml pipette for 1 min. Supernatants from the two steps were combined and passed through 70 μm filters and stained for FACS (below).
Isolation of cells from the lamina propria (LP). The small intestines were opened longitudinally and washed in ice-cold PBS. For scRNA-seq, roughly 0.5 cm of fragments from each of the distal, middle and proximal regions without visible PPs were collected. Epithelial cells were dissociated by tissue rotation in pre-warmed (37° C.) PBS containing 10 mM EDTA at 37° C. for 15 min, followed by additional incubation on ice for 15 min. Tissues were then shaken vigorously. […]

B1: OVA (protein, UniProt P01012 2-386, looked up)
Ovalbumin: GSIGAASMEFCFDVFKELKVHHANENIFYCPIAIMSALAMVYLGAKDSTRTQINKVVRFDKLPGFGDSIEAQCGTSVNVHSSLRDILNQITKPNDVYSFSLASRLYAEERYPILPEYLQCVKELYRGGLEPINFQTAADQARELINSWVESQTNGIIRNVLQPSSVDSQTAMVLVNAIVFKGLWEKAFKDEDTQAMPFRVTEQESKPVQMMYQIGLFRVASMASEKMKILELPFASGTMSMLVLLPDEVSGLEQLESIINFEKLTEWTSSNVMEERKIKVYLPRMKMEEKYNLTSVLMAMGITDVFSSSANLSGISSAESLKISQAVHAAHAEINEAGREVVGSAEAGVDAASVSEEFRADHPFLFCIKHIATNAVLFFGRCVSP
- Fosl2 percentage of expressing cells in OVA-treated group: 0.378
- Ftl1 percentage of expressing cells in OVA-treated group: 0.963
- Gadd45b percentage of expressing cells in OVA-treated group: 0.17
- Gimap1 percentage of expressing cells in OVA-treated group: 0.776
- Gimap6 percentage of expressing cells in OVA-treated group: 0.815
- Gimap9 percentage of expressing cells in OVA-treated group: 0.511
- Gnai2 percentage of expressing cells in OVA-treated group: 0.661
- Gramd1a percentage of expressing cells in OVA-treated group: 0.336
- Gramd3 percentage of expressing cells in OVA-treated group: 0.227
- Gzma percentage of expressing cells in OVA-treated group: 0.764
- H2-K1 percentage of expressing cells in OVA-treated group: 0.978
- H3f3b percentage of expressing cells in OVA-treated group: 0.993
- Hcst percentage of expressing cells in OVA-treated group: 0.898
- Hist1h1c percentage of expressing cells in OVA-treated group: 0.348
- Hist1h1e percentage of expressing cells in OVA-treated group: 0.176
- Icam1 percentage of expressing cells in OVA-treated group: 0.175
- Id2 percentage of expressing cells in OVA-treated group: 0.684
- Ier2 percentage of expressing cells in OVA-treated group: 0.781
- Ier5l percentage of expressing cells in OVA-treated group: 0.057
- Ifi203 percentage of expressing cells in OVA-treated group: 0.547
- Ifrd1 percentage of expressing cells in OVA-treated group: 0.276
- Igha percentage of expressing cells in OVA-treated group: 0.488
- Igkc percentage of expressing cells in OVA-treated group: 0.677
- Ikzf2 percentage of expressing cells in OVA-treated group: 0.216
- Il2rg percentage of expressing cells in OVA-treated group: 0.681
- Il16 percentage of expressing cells in OVA-treated group: 0.336
- Jun percentage of expressing cells in OVA-treated group: 0.453
- Jund percentage of expressing cells in OVA-treated group: 0.846
- Kdm2b percentage of expressing cells in OVA-treated group: 0.158
- Kdm6b percentage of expressing cells in OVA-treated group: 0.274
- Klf4 percentage of expressing cells in OVA-treated group: 0.122
- Klf6 percentage of expressing cells in OVA-treated group: 0.589
- Klrb1c percentage of expressing cells in OVA-treated group: 0.735
- Klrb1f percentage of expressing cells in OVA-treated group: 0.56
- Klrc1 percentage of expressing cells in OVA-treated group: 0.608
- Klrc2 percentage of expressing cells in OVA-treated group: 0.505
- Klrd1 percentage of expressing cells in OVA-treated group: 0.939
- Klre1 percentage of expressing cells in OVA-treated group: 0.744
- Klrk1 percentage of expressing cells in OVA-treated group: 0.873
- Lax1 percentage of expressing cells in OVA-treated group: 0.286
- Litaf percentage of expressing cells in OVA-treated group: 0.339
- Lmna percentage of expressing cells in OVA-treated group: 0.089
- Maff percentage of expressing cells in OVA-treated group: 0.251
- Mcpt1 percentage of expressing cells in OVA-treated group: 0.209
- Mir142hg percentage of expressing cells in OVA-treated group: 0.161
- Ms4a4b percentage of expressing cells in OVA-treated group: 0.953
- Ms4a6b percentage of expressing cells in OVA-treated group: 0.419
- Myl6 percentage of expressing cells in OVA-treated group: 0.987
- Nabp1 percentage of expressing cells in OVA-treated group: 0.702
- Ncr1 percentage of expressing cells in OVA-treated group: 0.964
- Ndel1 percentage of expressing cells in OVA-treated group: 0.216
- Neat1 percentage of expressing cells in OVA-treated group: 0.503
- Neurl3 percentage of expressing cells in OVA-treated group: 0.388
- Nfil3 percentage of expressing cells in OVA-treated group: 0.365
- Nfkb1 percentage of expressing cells in OVA-treated group: 0.374
- Nfkbia percentage of expressing cells in OVA-treated group: 0.614
- Nfkbid percentage of expressing cells in OVA-treated group: 0.146
- Nfkbie percentage of expressing cells in OVA-treated group: 0.111
- Nfkbiz percentage of expressing cells in OVA-treated group: 0.358
- Ninj1 percentage of expressing cells in OVA-treated group: 0.125
- Nkg7 percentage of expressing cells in OVA-treated group: 0.985
- Nr4a1 percentage of expressing cells in OVA-treated group: 0.561
- Nr4a2 percentage of expressing cells in OVA-treated group: 0.348
- Nr4a3 percentage of expressing cells in OVA-treated group: 0.157
- Odc1 percentage of expressing cells in OVA-treated group: 0.202
- P2ry10 percentage of expressing cells in OVA-treated group: 0.374
- Phlda1 percentage of expressing cells in OVA-treated group: 0.134
- Pim1 percentage of expressing cells in OVA-treated group: 0.677
- Pnrc1 percentage of expressing cells in OVA-treated group: 0.769
- Ppp1r15a percentage of expressing cells in OVA-treated group: 0.406
- Ppp1r16b percentage of expressing cells in OVA-treated group: 0.206
- Ppp3cc percentage of expressing cells in OVA-treated group: 0.268
- Prr7 percentage of expressing cells in OVA-treated group: 0.093
- Ptp4a2 percentage of expressing cells in OVA-treated group: 0.606
- Ptprcap percentage of expressing cells in OVA-treated group: 0.929
